Key:
[1] = tested on: PBMC from patients and normal donors; settings: patients A-1 and A-3, after 2-3 weeks of stimulation
[2] = tested on: allogeneic target cells partially matched at HLA class I; assay: HLA restriction of peptide specific CTL using allogeneic target cells partially matched at HLA class I; assay type: cell-based, human; settings: clone B3 (patient A-1) and polyclonal CTL line (patient A-3)
Description: Using patient A-1's HBsAg329-348 specific cell line four clones were derived from cells plated at 1 cell per well (clone B13, B16, B17) or 0.3 cells per well (clone B3). Clone B3 was tested against a panel of allogeneic target cells partially matched with the effectors at the level of HLA class I alleles. […] Since the HLA-A2 subtypes of the patients were not determined, it is not known if the CTL response to the peptides is restricted only by the HLA-A2.1 allele or whether it extends to other HLA-A2 subtypes as well.

ASARFSWLSLLVPFVQWFVG [HBsAg329-348]
cytotoxic response of peptide stimulated PBMC against JY cells prepulsed with the peptide [1]: strong cytotoxic response
HLA restriction of cytolytic activity of peptide specific CTL [2]: HLA-A2 restricted

— US5788969A, “Peptides for inducing cytotoxic T lymphocyte responses hepatitis B virus” (priority 1995, dated 1998)
